Reference: patent publication US20260240959A1, “METHODS FOR IN VIVO EDITING OF KLKB1” (INTELLIA THERAPEUTICS, INC., priority 2022, published 2026)
In the oligonucleotide strings, read from the 5' end, every base follows the letter of its sugar. An asterisk marks phosphorothioate; unmarked linkages are phosphodiester. Other units and linkages are bracketed, terminal groups are in braces. A string of capitals states the bases alone. m = 2'-O-methyl; r = 2'-OH (RNA)

Test system: plasma kallikrein
Assay: Plasma kallikrein activity in cynomolgus monkeys
Format: in vivo, cynomolgus monkey
Settings: for Kallikrein Activity (% of basal activity), Mean: n=3
Description: Cynomolgus monkeys were treated in cohorts of n=3. This study was conducted with LNP formulations according to Example 1. […]. Animals were dosed at 1.5, 3, or 6 mg per kg doses based on total RNA cargo. Indel formation (percent editing) was measured by NGS. Total kallikrein activity and plasma kallikrein protein level were measured as described above. […]

B1: G013901: cynomolgus specific KLKB1 guide RNA (SEQ ID NO: 409); dosed as LNP formulation with Cas9 mRNA (nucleic acid)
guide: mG*mG*mA*rUrUrArCrArUrArUrGrGrGrArCrArCrArArGrUrUrUrUrArGrAmGmCmUmAmGmAmAmAmUmAmGmCrArArGrUrUrArArArArUrArArGrGrCrUrArGrUrCrCrGrUrUrArUrCrAmAmCmUmUmGmAmAmAmAmAmGmUmGmGmCmAmCmCmGmAmGmUmCmGmGmUmGmCmU*mU*mU*mU
durability of response in NHPs (cynomolgus monkey, in vivo): durable through one year
Kallikrein Activity (% of basal activity), Mean (1.5 mpk, Day 7): 67.8 % of basal activity
Kallikrein Activity (% of basal activity), Mean (1.5 mpk, Day 14): 31.1 % of basal activity
Kallikrein Activity (% of basal activity), Mean (1.5 mpk, Day 28): 26.8 % of basal activity
Kallikrein Activity (% of basal activity), Mean (1.5 mpk, Day 42): 19.8 % of basal activity
Kallikrein Activity (% of basal activity), Mean (1.5 mpk, Day 56): 8.8 % of basal activity
Kallikrein Activity (% of basal activity), Mean (1.5 mpk, Day 70): 6 % of basal activity
Kallikrein Activity (% of basal activity), Mean (1.5 mpk, Day 84): 10.6 % of basal activity
Kallikrein Activity (% of basal activity), Mean (1.5 mpk, Day 105): 23.3 % of basal activity
Kallikrein Activity (% of basal activity), Mean (1.5 mpk, Day 119): 12.2 % of basal activity
Kallikrein Activity (% of basal activity), Mean (1.5 mpk, Day 147): 11.9 % of basal activity
Kallikrein Activity (% of basal activity), Mean (1.5 mpk, Day 161): 21 % of basal activity
Kallikrein Activity (% of basal activity), Mean (1.5 mpk, Day 180): 19.2 % of basal activity
Kallikrein Activity (% of basal activity), Mean (1.5 mpk, Day 238): 16.6 % of basal activity
Kallikrein Activity (% of basal activity), Mean (1.5 mpk, Day 252): 19.1 % of basal activity
Kallikrein Activity (% of basal activity), Mean (1.5 mpk, Day 266): 13.9 % of basal activity
Kallikrein Activity (% of basal activity), Mean (1.5 mpk, Day 280): 17.5 % of basal activity
Kallikrein Activity (% of basal activity), Mean (1.5 mpk, Day 294): 17 % of basal activity
Kallikrein Activity (% of basal activity), Mean (1.5 mpk, Day 308): 18.2 % of basal activity
Kallikrein Activity (% of basal activity), Mean (1.5 mpk, Day 326): 13.3 % of basal activity
Kallikrein Activity (% of basal activity), Mean (1.5 mpk, Day 333): 15.9 % of basal activity
Kallikrein Activity (% of basal activity), Mean (1.5 mpk, Day 347): 16.9 % of basal activity
Kallikrein Activity (% of basal activity), Mean (1.5 mpk, Day 365): 24.1 % of basal activity
Kallikrein Activity (% of basal activity), Mean (3 mpk, Day 7): 42.8 % of basal activity
Kallikrein Activity (% of basal activity), Mean (3 mpk, Day 14): 15.9 % of basal activity
Kallikrein Activity (% of basal activity), Mean (3 mpk, Day 28): 10.6 % of basal activity
Kallikrein Activity (% of basal activity), Mean (3 mpk, Day 42): 8.6 % of basal activity
Kallikrein Activity (% of basal activity), Mean (3 mpk, Day 56): 3.4 % of basal activity
Kallikrein Activity (% of basal activity), Mean (3 mpk, Day 70): 3 % of basal activity
Kallikrein Activity (% of basal activity), Mean (3 mpk, Day 84): 4.2 % of basal activity
Kallikrein Activity (% of basal activity), Mean (3 mpk, Day 105): 6 % of basal activity
Kallikrein Activity (% of basal activity), Mean (3 mpk, Day 119): 3.4 % of basal activity
Kallikrein Activity (% of basal activity), Mean (3 mpk, Day 147): 4.5 % of basal activity
Kallikrein Activity (% of basal activity), Mean (3 mpk, Day 161): 6 % of basal activity
Kallikrein Activity (% of basal activity), Mean (3 mpk, Day 180): 4.7 % of basal activity
Kallikrein Activity (% of basal activity), Mean (3 mpk, Day 238): 4.7 % of basal activity
Kallikrein Activity (% of basal activity), Mean (3 mpk, Day 252): 8.2 % of basal activity
Kallikrein Activity (% of basal activity), Mean (3 mpk, Day 266): 8.9 % of basal activity
Kallikrein Activity (% of basal activity), Mean (3 mpk, Day 280): 6.8 % of basal activity
Kallikrein Activity (% of basal activity), Mean (3 mpk, Day 294): 7.9 % of basal activity
Kallikrein Activity (% of basal activity), Mean (3 mpk, Day 308): 7.4 % of basal activity
Kallikrein Activity (% of basal activity), Mean (3 mpk, Day 326): 5.5 % of basal activity
Kallikrein Activity (% of basal activity), Mean (3 mpk, Day 333): 6.8 % of basal activity
Kallikrein Activity (% of basal activity), Mean (3 mpk, Day 347): 4.1 % of basal activity
Kallikrein Activity (% of basal activity), Mean (3 mpk, Day 365): 10 % of basal activity
Kallikrein Activity (% of basal activity), Mean (6 mpk, Day 7): 18.2 % of basal activity
Kallikrein Activity (% of basal activity), Mean (6 mpk, Day 14): 5.3 % of basal activity
Kallikrein Activity (% of basal activity), Mean (6 mpk, Day 28): 3.9 % of basal activity
Kallikrein Activity (% of basal activity), Mean (6 mpk, Day 42): 3.6 % of basal activity
Kallikrein Activity (% of basal activity), Mean (6 mpk, Day 56): 4.2 % of basal activity
Kallikrein Activity (% of basal activity), Mean (6 mpk, Day 70): 3.9 % of basal activity
Kallikrein Activity (% of basal activity), Mean (6 mpk, Day 84): 4.7 % of basal activity
Kallikrein Activity (% of basal activity), Mean (6 mpk, Day 105): 4.7 % of basal activity
Kallikrein Activity (% of basal activity), Mean (6 mpk, Day 119): 3 % of basal activity
Kallikrein Activity (% of basal activity), Mean (6 mpk, Day 147): 3 % of basal activity
Kallikrein Activity (% of basal activity), Mean (6 mpk, Day 161): 5.6 % of basal activity
Kallikrein Activity (% of basal activity), Mean (6 mpk, Day 180): 5 % of basal activity
Kallikrein Activity (% of basal activity), Mean (6 mpk, Day 238): 3.2 % of basal activity
Kallikrein Activity (% of basal activity), Mean (6 mpk, Day 252): 3.1 % of basal activity
Kallikrein Activity (% of basal activity), Mean (6 mpk, Day 266): 2.7 % of basal activity
Kallikrein Activity (% of basal activity), Mean (6 mpk, Day 280): 3 % of basal activity
Kallikrein Activity (% of basal activity), Mean (6 mpk, Day 294): 2.9 % of basal activity
Kallikrein Activity (% of basal activity), Mean (6 mpk, Day 308): 3 % of basal activity
Kallikrein Activity (% of basal activity), Mean (6 mpk, Day 326): 3.5 % of basal activity
Kallikrein Activity (% of basal activity), Mean (6 mpk, Day 333): 3.3 % of basal activity
